The test addresses Porphyromonas gingivalis heme-binding protein HmuY, heme-bound form (holo-HmuY) (Porphyromonas gingivalis). The test is described as follows: crystal structure; holo-HmuY (heme-bound), sitting-drop vapor diffusion at 20°C, 26 mg/mL protein in 5 mM Tris/HCl pH 8.0, reservoir 2.4 M (NH4)2SO4, 0.1 M MES pH 6.0; tetragonal crystals, one dimer per asymmetric unit; tetramer created by a local and a crystallographic two-fold axis.

Here are results for one substance from paper PMC2671838.

“Porphyromonas gingivalis heme-binding protein HmuY, heme-bound form (holo-HmuY) (natural protein)”: the stoichiometry N (in general, the number of molecules, sites or subunits per partner or assembly) is 4.
